For assay [1], the target named is SARS-CoV-2 receptor binding domain (RBD) (SARS-CoV-2) (UniProt P0DTC2). Description: ELISA.
The target of assay [2] is SARS-CoV-2 spike S1 (SARS-CoV-2) (UniProt P0DTC2). The assay is described as follows: ELISA. A general note: An ELISA detects its analyte on a solid surface through an enzyme-linked reagent.
A further assay addresses HCoV-229E S1 (HCoV-229E) (UniProt P15423). The assay is described as follows: ELISA.
Assay [3] has as its target SARS-CoV-2 receptor binding domain (RBD) (SARS-CoV-2) (UniProt P0DTC2). Description: ELISA. This is another data set of the same source.
The next assay concerns the target SARS CoV RBD (SARS-CoV) (UniProt P59594). The assay is described as follows: ELISA.
Another assay addresses HCoV-NL63 S1 (HCoV-NL63) (UniProt Q6Q1S2). The assay is described as follows: ELISA.
The next assay addresses MERS CoV S1 (MERS CoV) (UniProt K9N5Q8). The assay is described as follows: ELISA.
Assay [4] addresses SARS-CoV-2 receptor binding domain (RBD) (SARS-CoV-2) (UniProt P0DTC2). The assay is described as follows: RBD:ACE2 blocking ELISA (RBD coated, ACE2-His).
The target in assay [5] is SARS-CoV-2 spike on GFP reporter pseudotype virus (Wuhan-Hu-1) (SARS-CoV-2) (UniProt P0DTC2). Description: cell-based or functional assay.

Where two headings read alike, the source gives them in different places.

What is called EC50 is the concentration at which the effect is half-maximal. As to IVIG (Gamunex; Grifols) (antibody), the 50% effective concentration (EC50) in assay [1] amounted to 1250 µg/mL; in assay [2] it was 1410 µg/mL; with HCoV-229E S1 (HCoV-229E), 96 µg/mL; in assay [3] it was 1270 µg/mL; with SARS CoV RBD (SARS-CoV) it was 1280 µg/mL; with HCoV-NL63 S1 (HCoV-NL63), 140 µg/mL. This substance also had an EC50 with MERS CoV S1 (MERS CoV) of 1330 µg/mL. The peak OD signal came out at 1.99 OD in assay [2] and 2.26 OD in assay [3].
What is called IC50 is the midpoint of a concentration-inhibition curve. Take “rCIG (recombinant coronavirus-2 immune globulin; recombinant anti-coronavirus 19 hyperimmune gammaglobulin) (antibody)”: in [4], the IC50 stood at 2.2 µg/mL. The results for the EC50 (in assay [2]; in assay [3]; in the assay with SARS CoV RBD (SARS-CoV)) were 0.092 µg/mL, 0.1 µg/mL and 0.6 µg/mL, respectively. In assay [5], this substance displayed a CoV-2 pseudotype neutralization IC50 of 0.43 µg/mL.

For the origin of these results see patent US20220041715A1.
